Substitutions are numbered along the chain they refer to.
Assays:
Assay in all cases: In vitro caspase 9 activation assay: recombinant Apaf-1 variants incubated with in vitro translated procaspase-9
Type in all cases: biochemical
procaspase-9 [1] = molecular target: T1, procaspase-9 (Homo sapiens, UniProt P55211)
T1 construct: schematic representation of full length procaspase-9; made in house; host or cells: coupled in vitro transcription/translation in rabbit reticulocyte lysate (TNT Kit, Promega)
T1 sequence (P55211 134-416): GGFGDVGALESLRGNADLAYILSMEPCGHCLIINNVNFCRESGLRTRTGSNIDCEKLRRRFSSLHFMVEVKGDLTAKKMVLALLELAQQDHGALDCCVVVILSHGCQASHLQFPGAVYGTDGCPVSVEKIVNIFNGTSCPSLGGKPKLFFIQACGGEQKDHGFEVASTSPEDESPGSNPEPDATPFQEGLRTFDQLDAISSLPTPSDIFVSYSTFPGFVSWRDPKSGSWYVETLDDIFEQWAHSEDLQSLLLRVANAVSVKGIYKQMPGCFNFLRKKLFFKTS

procaspase-9 [2] = molecular target: T2, procaspase-9 (Homo sapiens, UniProt P55211); details: in the absence of cytochrome c or dATP; 200 ng protein, 2 h at 30° C.; SDS-PAGE and autoradiography (FIG. 2A)
T2 construct: schematic representation of full length procaspase-9; made in house; host or cells: coupled in vitro transcription/translation in rabbit reticulocyte lysate (TNT Kit, Promega)
T2 sequence (P55211 1-416): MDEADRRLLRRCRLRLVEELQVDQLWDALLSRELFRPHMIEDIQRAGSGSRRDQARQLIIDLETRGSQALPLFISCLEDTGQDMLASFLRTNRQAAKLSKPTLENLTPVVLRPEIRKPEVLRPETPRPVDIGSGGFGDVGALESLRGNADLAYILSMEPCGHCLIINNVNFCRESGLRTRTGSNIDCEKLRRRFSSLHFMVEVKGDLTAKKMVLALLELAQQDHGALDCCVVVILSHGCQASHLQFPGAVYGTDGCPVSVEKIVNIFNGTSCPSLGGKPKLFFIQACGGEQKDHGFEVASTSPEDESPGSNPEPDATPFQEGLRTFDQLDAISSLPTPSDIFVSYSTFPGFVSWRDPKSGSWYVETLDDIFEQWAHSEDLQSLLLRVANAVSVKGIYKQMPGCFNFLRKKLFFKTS

procaspase-9 [3] = molecular target: T3, procaspase-9 (Homo sapiens, UniProt P55211, C287A)
T3 construct: schematic representation of full length procaspase-9; made in house; host or cells: coupled in vitro transcription/translation in rabbit reticulocyte lysate (TNT Kit, Promega)
T3 sequence (P55211 1-416 C287A): T2 sequence (P55211 1-416) with C287A

procaspase-9 [4] = molecular target: T4, procaspase-9 (Homo sapiens, UniProt P55211, D315A); details: 35S-labeled substrate, FIG. 3
T4 construct: schematic representation of full length procaspase-9; made in house; host or cells: coupled in vitro transcription/translation in rabbit reticulocyte lysate (TNT Kit, Promega)
T4 sequence (P55211 1-416 D315A): T2 sequence (P55211 1-416) with D315A

procaspase-9 [5] = test system: procaspase-9
[6] = in the presence of non-radiolabeled WT procaspase-9, FIG. 14

processing of prodomainless procaspase-9 (residues 134-416) (procaspase-9 [1]; 35S-labeled substrate, FIG. 3): prevented processing
processing of 35S-labeled prodomainless procaspase-9 (procaspase-9 [1]; [6]): not
processing of procaspase-9 active site C287A mutant (procaspase-9 [3]; 35S-labeled substrate, FIG. 3): unable to promote processing
processing of 35S-labeled C287A mutant procaspase-9 (procaspase-9 [3]; [6]): able to induce processing
processing of D315A mutant procaspase-9 (procaspase-9 [4]): unable to process
processing of WT or D330A mutant procaspase-9 (procaspase-9 [5]; 35S-labeled substrate, FIG. 3): produced the p35 fragment
B1: Apaf-530: truncated Apaf-1 (residues 1-530) lacking its WD-40 repeats, recombinant (protein, UniProt O14727 1-530, looked up, fragment)
chain: MDAKARNCLLQHREALEKDIKTSYIMDHMISDGFLTISEEEKVRNEPTQQQRAAMLIKMILKKDNDSYVSFYNALLHEGYKDLAALLHDGIPVVSSSSGKDSVSGITSYVRTVLCEGGVPQRPVVFVTRKKLVNAIQQKLSKLKGEPGWVTIHGMAGCGKSVLAAEAVRDHSLLEGCFPGGVHWVSVGKQDKSGLLMKLQNLCTRLDQDESFSQRLPLNIEEAKDRLRILMLRKHPRSLLILDDVWDSWVLKAFDSQCQILLTTRDKSVTDSVMGPKYVVPVESSLGKEKGLEILSLFVNMKKADLPEQAHSIIKECKGSPLVVSLIGALLRDFPNRWEYYLKQLQNKQFKRIRKSSSYDYEALDEAMSISVEMLREDIKDYYTDLSILQKDVKVPTKVLCILWDMETEEVEDILQEFVNKSLLFCDRNGKSFRYYLHDLQVDFLTEKNCSQLQDLHKKIITQFQRYHQPHTLSPDQEDCMYWYNFLAYHMASAKMHKELCALMFSLDWIKAKTELVGPAHLIHEFVEYR
processing of procaspase-9 to produce a 35 kDa fragment (p35) (procaspase-9 [2]): able to promote processing of procaspase-9
autoprocessing of C287A and R355E mutant procaspase-9 (procaspase-9 [5]; mutants incubated separately or together, 1 hour at 30° C., FIG. 13): none of the mutants were able to autoprocess
